Laboratory results as given in PMC5090066, “An affinity-directed protein missile system for targeted proteolysis” (Open Biology, 2016).

Legend:
[1] = biological target: T1, PAWS1-GFP (endogenous PAWS1/FAM83G with a GFP tag knocked in at the C-terminus) (Aequorea victoria GFP (tag on human …, UniProt P42212 = GFP)); test: pull-down; aGFP16 tethered to sepharose beads; cell extracts; pull-downs and flow-through extracts analysed; settings: one partner purified
T1 construct: PAWS1 (FAM83G), human, expressed from its own locus; GFP tag knocked in around the stop codon of PAWS1; donor construct DU48585; also called protein associated with SMAD1; source: endogenous, homozygous CRISPR/Cas9 knock-in U2OS cells, in cell extract

[2] = biological target: T2, GFP-VPS34 (endogenous VPS34 with a GFP tag knocked in at the N-terminus) (Aequorea victoria GFP (tag on human …, UniProt P42212 = GFP)); test: as above; settings: one partner purified
T2 construct: GFP tag knocked in around the start codon of VPS34; donor construct DU52175; VPS34, class III phosphatidylinositol 3-kinase, human, expressed from its own locus; also called vacuolar protein sorting 34; source: endogenous, homozygous CRISPR/Cas9 knock-in HEK293 cells, in cell extract

B1: aGFP16, cameloid anti-GFP nanobody, tethered to sepharose beads (VHH)
VHH: QVQLVESGGRLVQAGDSLRLSCAASGRTFSTSAMAWFRQAPGREREFVAAITWTVGNTILGDSVKGRFTISRDRAKNTVDLQMDNLEPEDTAVYYCSARSRGYVLSVLRSVDSYDYWGQGTQVTVSG
notes: DU54238 is the cDNA in the pBABED/pRetroX vectors
- binding result [1]: binds
- binding result [2]: binds
